{"source": "paper PMC11155677", "origin": "cited, not measured here", "target": "Lys115 (UniProt position 115, LSAYPKKLGYP)"}
{"substance": "Acetoacetate decarboxylase (AADase) (not stated (Clostridium acetobutylicum inferred))", "values": [{"measurement": "pKa", "value": 6}]}
